Key:
Experiment in all cases: Kinase Profiling Assay
Assay type in all cases: biochemical
Details in all cases: 100 μM
CDK3/cyclinE (h) = biological target: T1, CDK3/cyclinE (h) (Homo sapiens, UniProt Q00526)
T1 construct: purchased Millipore
Method in brief: (§1)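 In this 266-kinase specificity panel, every measurement was duplicated. Transfer of labeled phosphate from ATP to a cationic substrate was quantified after the substrate adhered to an anionic filter membrane and was scintillation-counted, then related to a full-activity control.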

DAPK2 (h) = biological target: T2, DAPK2 (h) (Homo sapiens, UniProt Q9UIK4)
T2 construct: purchased Millipore
T2 sequence (Q9UIK4 whole entry): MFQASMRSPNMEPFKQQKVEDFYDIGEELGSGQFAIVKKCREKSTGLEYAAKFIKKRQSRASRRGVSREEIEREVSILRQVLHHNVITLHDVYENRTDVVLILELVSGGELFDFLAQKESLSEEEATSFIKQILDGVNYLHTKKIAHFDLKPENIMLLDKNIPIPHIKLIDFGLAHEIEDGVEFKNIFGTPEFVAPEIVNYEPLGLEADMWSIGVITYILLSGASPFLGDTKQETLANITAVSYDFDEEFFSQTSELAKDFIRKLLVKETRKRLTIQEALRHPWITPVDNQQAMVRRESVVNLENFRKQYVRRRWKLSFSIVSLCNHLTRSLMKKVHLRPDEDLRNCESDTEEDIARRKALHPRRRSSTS
Method in brief: as §1

GSK3β (h) = biological target: T3, GSK3β (h) (Homo sapiens, UniProt P49841)
T3 construct: purchased Millipore
T3 sequence (P49841 whole entry): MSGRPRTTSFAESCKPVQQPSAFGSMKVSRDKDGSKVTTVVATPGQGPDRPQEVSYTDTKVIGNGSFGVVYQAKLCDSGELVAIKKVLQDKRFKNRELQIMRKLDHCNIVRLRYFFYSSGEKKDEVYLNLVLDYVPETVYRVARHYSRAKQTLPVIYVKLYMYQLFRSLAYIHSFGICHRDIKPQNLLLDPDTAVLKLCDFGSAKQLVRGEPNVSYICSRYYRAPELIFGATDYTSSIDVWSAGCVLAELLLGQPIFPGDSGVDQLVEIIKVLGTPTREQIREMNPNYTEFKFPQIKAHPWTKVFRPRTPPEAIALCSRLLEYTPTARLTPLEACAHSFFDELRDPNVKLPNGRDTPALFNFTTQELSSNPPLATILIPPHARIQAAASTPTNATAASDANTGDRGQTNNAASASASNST
Method in brief: as §1

Itk (h) = biological target: T4, Itk (h) (Homo sapiens, UniProt Q08881)
T4 construct: purchased Millipore
T4 sequence (Q08881 1-620): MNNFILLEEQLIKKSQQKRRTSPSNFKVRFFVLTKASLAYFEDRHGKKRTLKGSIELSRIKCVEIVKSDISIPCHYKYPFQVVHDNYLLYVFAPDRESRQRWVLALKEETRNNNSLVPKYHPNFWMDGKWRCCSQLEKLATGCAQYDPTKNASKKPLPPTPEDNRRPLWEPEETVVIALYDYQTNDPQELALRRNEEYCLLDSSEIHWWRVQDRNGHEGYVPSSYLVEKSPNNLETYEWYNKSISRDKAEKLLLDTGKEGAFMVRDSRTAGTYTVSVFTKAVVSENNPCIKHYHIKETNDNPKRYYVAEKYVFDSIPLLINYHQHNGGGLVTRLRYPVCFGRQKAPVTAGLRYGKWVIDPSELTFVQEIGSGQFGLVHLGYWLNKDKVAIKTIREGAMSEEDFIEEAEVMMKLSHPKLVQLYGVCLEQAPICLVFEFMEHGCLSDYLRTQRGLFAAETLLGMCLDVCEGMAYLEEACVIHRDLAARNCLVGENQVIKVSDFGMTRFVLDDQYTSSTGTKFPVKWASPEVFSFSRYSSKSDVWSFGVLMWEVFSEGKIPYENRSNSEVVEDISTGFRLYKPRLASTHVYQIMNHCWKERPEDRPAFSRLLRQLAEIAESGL
Method in brief: as §1

PKCα (h) = biological target: T5, PKCα (h) (Homo sapiens, UniProt P17252)
T5 construct: purchased Millipore
Method in brief: as §1

TAO3 (h) = biological target: T6, TAO3 (h) (Homo sapiens, UniProt Q9H2K8)
T6 sequence (Q9H2K8 1-898): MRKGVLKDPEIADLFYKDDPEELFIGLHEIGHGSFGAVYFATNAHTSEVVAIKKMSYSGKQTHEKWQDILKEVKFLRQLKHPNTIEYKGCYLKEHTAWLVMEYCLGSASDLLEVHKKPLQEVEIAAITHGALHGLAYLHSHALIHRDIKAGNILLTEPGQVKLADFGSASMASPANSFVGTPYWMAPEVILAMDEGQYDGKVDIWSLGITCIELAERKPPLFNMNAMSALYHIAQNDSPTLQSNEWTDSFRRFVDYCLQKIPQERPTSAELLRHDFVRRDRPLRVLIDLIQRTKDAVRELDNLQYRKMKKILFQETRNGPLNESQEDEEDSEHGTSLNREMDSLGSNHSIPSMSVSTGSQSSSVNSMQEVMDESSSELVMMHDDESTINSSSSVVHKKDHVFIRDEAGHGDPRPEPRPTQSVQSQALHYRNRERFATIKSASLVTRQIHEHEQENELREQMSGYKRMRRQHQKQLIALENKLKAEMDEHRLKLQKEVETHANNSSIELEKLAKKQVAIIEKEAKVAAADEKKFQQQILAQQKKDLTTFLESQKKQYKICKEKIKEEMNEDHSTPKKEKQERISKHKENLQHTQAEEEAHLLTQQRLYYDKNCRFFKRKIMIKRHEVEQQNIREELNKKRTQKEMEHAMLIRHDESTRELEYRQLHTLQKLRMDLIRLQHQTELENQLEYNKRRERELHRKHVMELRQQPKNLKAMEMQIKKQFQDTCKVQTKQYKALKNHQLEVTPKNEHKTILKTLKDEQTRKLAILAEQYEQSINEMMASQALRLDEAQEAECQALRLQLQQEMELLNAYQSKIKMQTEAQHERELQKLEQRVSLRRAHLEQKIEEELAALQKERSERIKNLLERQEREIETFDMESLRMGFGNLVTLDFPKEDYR
Method in brief: as §1

VRK2 (h) = VRK2 (h) (Homo sapiens, UniProt Q86Y07)
VRK2 (h), sequence (Q86Y07 whole entry): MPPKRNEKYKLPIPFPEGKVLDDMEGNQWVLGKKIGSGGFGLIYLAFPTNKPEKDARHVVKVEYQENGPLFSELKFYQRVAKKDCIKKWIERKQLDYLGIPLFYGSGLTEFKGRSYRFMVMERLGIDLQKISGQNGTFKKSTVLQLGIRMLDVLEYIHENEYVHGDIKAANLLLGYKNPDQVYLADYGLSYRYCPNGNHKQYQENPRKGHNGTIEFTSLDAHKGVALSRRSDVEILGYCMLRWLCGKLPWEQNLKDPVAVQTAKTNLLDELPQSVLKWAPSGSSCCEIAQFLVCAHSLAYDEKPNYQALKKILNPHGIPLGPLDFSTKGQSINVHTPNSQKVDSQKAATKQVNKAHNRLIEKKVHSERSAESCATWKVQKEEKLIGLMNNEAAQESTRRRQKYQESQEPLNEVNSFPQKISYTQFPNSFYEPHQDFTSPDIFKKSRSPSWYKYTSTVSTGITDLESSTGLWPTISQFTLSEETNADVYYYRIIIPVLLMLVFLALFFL
Method in brief: as §1

cKit(V654A) (h) = biological target: T7, cKit(V654A) (h) (Homo sapiens, UniProt P10721, V654A)
T7 construct: purchased Millipore
Method in brief: as §1

T1 sequence (Q00526 whole entry): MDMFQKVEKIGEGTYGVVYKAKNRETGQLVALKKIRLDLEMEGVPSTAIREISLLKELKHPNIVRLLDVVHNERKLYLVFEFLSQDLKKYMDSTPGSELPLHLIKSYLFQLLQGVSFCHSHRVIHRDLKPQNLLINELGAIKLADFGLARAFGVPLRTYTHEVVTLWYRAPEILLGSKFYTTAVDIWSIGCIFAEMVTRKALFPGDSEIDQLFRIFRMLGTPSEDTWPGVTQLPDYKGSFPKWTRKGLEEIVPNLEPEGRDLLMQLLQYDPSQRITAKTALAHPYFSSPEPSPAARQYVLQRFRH
T1 sequence (P24864 whole entry partner): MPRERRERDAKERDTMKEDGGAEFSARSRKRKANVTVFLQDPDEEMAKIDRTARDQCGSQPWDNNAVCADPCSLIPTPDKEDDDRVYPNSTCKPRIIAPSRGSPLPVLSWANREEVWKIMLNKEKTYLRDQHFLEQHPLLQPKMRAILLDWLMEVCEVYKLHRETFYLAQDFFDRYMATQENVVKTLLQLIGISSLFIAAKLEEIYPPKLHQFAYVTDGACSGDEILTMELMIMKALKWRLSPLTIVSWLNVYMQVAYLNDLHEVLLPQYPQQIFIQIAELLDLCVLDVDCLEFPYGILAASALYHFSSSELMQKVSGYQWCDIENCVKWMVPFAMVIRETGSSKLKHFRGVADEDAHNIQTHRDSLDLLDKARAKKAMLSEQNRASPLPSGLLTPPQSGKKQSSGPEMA

## FAKLAARLYRKALARQLGVAA [MMI-0300]
CDK3/cyclinE (h)
  % activity: 94%
DAPK2 (h)
  % activity: 32%
GSK3β (h)
  % activity: 205%
Itk (h)
  % activity: 77%
PKCα (h)
  % activity: 89%
TAO3 (h)
  % activity: 77%
VRK2 (h)
  % activity: 161%
cKit(V654A) (h)
  % activity: 134%

## HRRIKAWLKKIKALARQLGVAA (Mammalian) [MMI-0500]
CDK3/cyclinE (h)
  % activity: 8%
DAPK2 (h)
  % activity: 3%
GSK3β (h)
  % activity: 238%
Itk (h)
  % activity: 7%
PKCα (h)
  % activity: 3%
TAO3 (h)
  % activity: 12%
VRK2 (h)
  % activity: 169%
cKit(V654A) (h)
  % activity: 223%

## KAFAKLAARLYRKALARQLGVAA [MMI-0400]
CDK3/cyclinE (h)
  % activity: 92%
DAPK2 (h)
  % activity: 16%
GSK3β (h)
  % activity: 202%
Itk (h)
  % activity: 63%
PKCα (h)
  % activity: 86%
TAO3 (h)
  % activity: 67%
VRK2 (h)
  % activity: 185%
cKit(V654A) (h)
  % activity: 150%

## YARAAARQARAKALNRQLGVA (Mammalian) [MMI-0200]
DAPK2 (h)
  % activity: 92%
GSK3β (h)
  % activity: 132%
Itk (h)
  % activity: 98%
PKCα (h)
  % activity: 100%

— patent US10500249B2, “Compositions and methods for preventing or treating diseases, conditions, or processes characterized by aberrant fibroblast proliferation and extracellular matrix deposition” (MOERAE MATRIX, INC., priority 2014, dated 2019)
